Here are results for two molecules from publication PMC3668167, “Ski-interacting protein (SKIP) interacts with androgen receptor in the nucleus and modulates androgen-dependent transcription” (BMC Biochemistry, 2013).

Assay [1] concerns the target T1, GAL4 DNA binding domain fusion of AR-LBD residues 642-917 (pM-GAL4DBD-AR642-917) (human, UniProt P10275 642-917).
T1 construct: also called AR-LBD 642-917; AR C-terminus; source: HEK293, transfected, mammalian two-hybrid fusion
T1 sequence (looked up): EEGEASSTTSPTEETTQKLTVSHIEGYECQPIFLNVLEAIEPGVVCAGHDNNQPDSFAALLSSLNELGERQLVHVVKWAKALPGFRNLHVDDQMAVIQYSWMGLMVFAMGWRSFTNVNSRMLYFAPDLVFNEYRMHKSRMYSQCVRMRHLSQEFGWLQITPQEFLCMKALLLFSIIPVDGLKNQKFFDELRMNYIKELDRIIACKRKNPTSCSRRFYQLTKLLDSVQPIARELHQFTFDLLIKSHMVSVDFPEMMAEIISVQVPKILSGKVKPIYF
In words: two-hybrid; mammalian two-hybrid in HEK293 cells, GAL4(5)E1bTATA-luciferase reporter, GAL4DBD-AR642-917 with pVP16-AR1-538, SKIP-pCGN co-expressed, 1 nM DHT; activity relative to empty vectors without DHT. The note with it: partners not purified. On the technique in general: In a reporter assay the amount or activity of a reporter protein is the signal.

The target of assay [2] is T1, GAL4 DNA binding domain fusion of …. In words: two-hybrid; mammalian two-hybrid in HEK293 cells, GAL4(5)E1bTATA-luciferase reporter, GAL4DBD-AR642-917 with pVP16-AR1-538, empty pCGN (no SKIP), 1 nM DHT; activity relative to empty vectors without DHT. Conditions: partners not purified.
Assay [3] shares this target. Description: cell-based or functional assay.
For assay [4], the target named is T2, GAL4 DNA binding domain fusion of the AR AF-1 fragment, residues 1-555 (pM-GAL4DBD-AR-AF1) (human, UniProt P10275 1-555).
T2 sequence (looked up): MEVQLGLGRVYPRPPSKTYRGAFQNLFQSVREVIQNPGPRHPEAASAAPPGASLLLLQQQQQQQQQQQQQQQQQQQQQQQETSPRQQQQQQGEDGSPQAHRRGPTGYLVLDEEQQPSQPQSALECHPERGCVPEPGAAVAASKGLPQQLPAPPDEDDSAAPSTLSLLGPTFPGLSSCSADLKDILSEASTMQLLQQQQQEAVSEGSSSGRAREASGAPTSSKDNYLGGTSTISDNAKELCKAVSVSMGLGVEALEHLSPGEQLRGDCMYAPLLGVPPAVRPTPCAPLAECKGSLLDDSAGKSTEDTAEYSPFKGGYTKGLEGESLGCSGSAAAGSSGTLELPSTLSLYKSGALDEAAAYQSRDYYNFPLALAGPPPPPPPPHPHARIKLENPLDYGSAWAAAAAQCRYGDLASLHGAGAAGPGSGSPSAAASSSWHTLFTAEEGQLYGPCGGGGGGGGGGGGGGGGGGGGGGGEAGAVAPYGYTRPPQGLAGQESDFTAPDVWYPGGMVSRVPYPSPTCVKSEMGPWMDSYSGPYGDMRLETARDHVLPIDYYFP
Description: cell-based or functional assay.

B1: VP16 activation domain fusion of AR residues 1-538 (pVP16-AR1-538) (domain or fragment, human, UniProt P10275 1-538, looked up)
chain: MEVQLGLGRVYPRPPSKTYRGAFQNLFQSVREVIQNPGPRHPEAASAAPPGASLLLLQQQQQQQQQQQQQQQQQQQQQQQETSPRQQQQQQGEDGSPQAHRRGPTGYLVLDEEQQPSQPQSALECHPERGCVPEPGAAVAASKGLPQQLPAPPDEDDSAAPSTLSLLGPTFPGLSSCSADLKDILSEASTMQLLQQQQQEAVSEGSSSGRAREASGAPTSSKDNYLGGTSTISDNAKELCKAVSVSMGLGVEALEHLSPGEQLRGDCMYAPLLGVPPAVRPTPCAPLAECKGSLLDDSAGKSTEDTAEYSPFKGGYTKGLEGESLGCSGSAAAGSSGTLELPSTLSLYKSGALDEAAAYQSRDYYNFPLALAGPPPPPPPPHPHARIKLENPLDYGSAWAAAAAQCRYGDLASLHGAGAAGPGSGSPSAAASSSWHTLFTAEEGQLYGPCGGGGGGGGGGGGGGGGGGGGGGGEAGAVAPYGYTRPPQGLAGQESDFTAPDVWYPGGMVSRVPYPSPTCVKSEMGPWMDSYSGPYGDM
notes: androgen receptor, human, N-terminal residues 1-538; also called AR N-terminus; source: HEK293, transfected, mammalian two-hybrid fusion
Consider B1, for which the “relative luciferase activity, fold over control (SKIP co-expressed)” value in assay [1] is ~300 fold. For the same molecule, in assay [2], the “relative luciferase activity, fold over control” value worked out at 12 fold.

B2: HA-tagged Ski-interacting protein (SKIP-pCGN) (natural protein, human, UniProt Q13573 1-536, looked up)
chain: MALTSFLPAPTQLSQDQLEAEEKARSQRSRQTSLVSSRREPPPYGYRKGWIPRLLEDFGDGGAFPEIHVAQYPLDMGRKKKMSNALAIQVDSEGKIKYDAIARQGQSKDKVIYSKYTDLVPKEVMNADDPDLQRPDEEAIKEITEKTRVALEKSVSQKVAAAMPVRAADKLAPAQYIRYTPSQQGVAFNSGAKQRVIRMVEMQKDPMEPPRFKINKKIPRGPPSPPAPVMHSPSRKMTVKEQQEWKIPPCISNWKNAKGYTIPLDKRLAADGRGLQTVHINENFAKLAEALYIADRKAREAVEMRAQVERKMAQKEKEKHEEKLREMAQKARERRAGIKTHVEKEDGEARERDEIRHDRRKERQHDRNLSRAAPDKRSKLQRNENRDISEVIALGVPNPRTSNEVQYDQRLFNQSKGMDSGFAGGEDEIYNVYDQAWRGGKDMAQSIYRPSKNLDKDMYGDDLEARIKTNRFVPDKEFSGSDRRQRGREGPVQFEEDPFGLDKFLEEAKQHGGSKRPSDSSRPKEHEHEGKKRRKE
Take B2: in assay [3], the “GAL4 luciferase reporter in HEK293 cells: ligand-dependent (1 nM DHT) activation of the AR-LBD 642-917 construct with overexpressed SKIP (Figure 2 column 7)” value was found to be 9 fold. In addition, in assay [4], the “mammalian one-hybrid luciferase reporter in HEK293 cells: AR-AF-1 (GAL4DBD-AR1-555) ligand-independent transcriptional activity with overexpressed SKIP against without SKIP” value was ~5 fold.
